Test results: the Human Domainome abundance scans (Beltran et al. 2025)

B1: 1-phosphatidylinositol 4,5-bisphosphate phosphodiesterase gamma-2, residues 772 to 827; numbered along this chain, P16885 (parent)
chain: RTVKALYDYKAKRSDELSFCRGALIHNVSKEPGGWWKGDYGTRIQQYFPSNYVEDI

Variants of: B1
Assay: abundance fitness (aPCA) (normalised: wild type 0, dead -1); higher = more abundant; growth selection in yeast, the domain comes from the species named
Settings: Homo sapiens

Abundance fitness of substitutions, site by site:
L17: T -0.788; Q -0.903; R -0.945; M 0.012
K12: C -0.705; H 0.113; F -0.63; R -0.092; L -0.177; S -0.263; D -0.239; T -0.097; I -0.405; N -0.181
D39: P -0.851; Q -0.958; A -1.01; E -0.798; M -0.924
D15: F -0.124; Y -0.254; Q -0.214; I -0.027; N -0.048; C -0.165; V -0.041; K -0.503; R -0.427
G22: P -0.688; R -0.775; V -0.911; W -0.811; C -0.86
G38: R -0.959; W -0.803; A -0.83; S -1
R13: T -0.368; M -0.021; W -0.846
Y47: D -0.763; Q -0.167; N -0.256; G -0.604; S -0.293; E -0.672
R1: G -0.328; T 0.417; V 0.257; I -0.141
E16: A -0.456; G -0.354; L -0.486; R -0.528; T -0.442
W35: L -0.058; T -0.281; P -0.616; K -0.58; M -0.225; A -0.383
F19: C -0.64; P -0.536
S18: F -0.927; N -0.619; T -0.187; P -0.907
R21: K -0.247; S -0.285
K30: D -0.214; N -0.167; A -0.195; T -0.245; I 0.245; G -0.576; H -0.054; C -0.077
N51: V -0.134; A -0.025; R -0.057; L -0.261; F -0.398; E 0.094; C 0.13; Y -0.155; G -0.034
L6: F -0.456; G -0.721; Q -0.485; N -0.257; P -0.691; E -0.631; W -0.935
T2: M -0.241; V 0.037; G -0.578; Y -0.177; W -0.883
N27: H -0.486; L -0.974; A -0.56; R -0.549; C -0.722; E -0.164
Y7: T -0.267; N -0.375; M -0.059; H -0.015; I -0.165; D -0.282; R 0.169; F 0.126
R43: S -0.199; T -0.269; D -0.243; W -0.167; E -0.033; N 0.097; C -0.111; M -0.049; V -0.349; I -0.377; F -0.359; Y -0.228
Q45: V -0.942; D -0.753; T -0.651; C -0.33; L -0.923; R -0.92; H -0.458; A -0.335; K -0.51; Y -0.732; G -0.278
G33: A -0.547; C -0.108; H -0.277; E -0.274; P -0.699; L -0.408; Q -0.556; V -0.82; N -0.102
T42: S 0.054; L -0.155; F -0.152; K -0.243
S29: F 0.151
A5: S -0.503; L -0.999; H -0.976; V -0.965
P32: V -0.315; S -0.011; G -0.115; W -0.406; M 0.093
D8: R -0.452; F -0.382; C -0.105; W -0.634; A 0.068
I44: S -0.454; G -0.811; M 0.019; N -0.224; C -0.074
D55: L -0.448; N -0.033; Y -0.287; A -0.114; P -0.022; H -0.213
C20: I -0.216; Q -0.143; W -0.446; F -0.17; S 0.008; G -0.059; A 0.004; K 0.002; D -0.095
K37: A -0.622; V -0.213; R -0.091; W -0.908; C -0.318; G -0.887; I -0.301; P -0.617
L24: P -0.818; A -0.659; D -0.781; K -0.215; V -0.046; Y 0.041; G -0.837; T -0.222
A11: R -0.683; L -1.05; V -0.972
V28: A -0.873; S -0.836; R -0.788
S50: Q -0.398; T -0.352; M 0.071; G -0.093; P -0.241
I25: V -0.481; R -0.976; F -0.598; L -0.386; W -0.723
K4: M -0.127; V 0.055; F -0.393; T -0.288; Q -0.148; W -0.375; E -0.216
F48: A -1.02; V -0.939; R -0.982; E -1.05; L -0.541
G34: M -0.11; K 0.024; W -0.445; Q -0.094; H -0.101; A -0.074
E31: K -0.135; V -0.099; H -0.265; I -0.174; Y -0.05; T 0.141; N -0.169; F 0.016; G 0.065; C -0.069
A23: T -0.065; N -0.131; K -0.745; C -0.092; Y -0.059
Y52: C -0.086; P -0.892; L 0.026; I -0.077; R -0.295; F 0.022; T 0.01
Y9: T -0.931; G -0.949; K -0.816; R -0.685; C 0.089
H26: P -1.1; Q -0.005; K -0.221; C -0.087; T 0.034; V -0.035; A -0.113
W36: A -0.214; R -0.724; M -0.108; L -0.095; G -0.58
E54: F -0.04; D -0.291; H -0.272; I -0.353; W -0.55; C -0.197; V -0.244; N -0.196; Y -0.38
Q46: S 0.054; P -0.866; V -0.653; Y -0.223; D -0.673; C -0.193; T -0.391; W -0.367; E -0.684
S14: V -0.16; R 0.026; C -0.124; Q 0.037; L -0.167; D -0.053; A 0.038; G -0.007; I 0.031
G41: Q -0.217; H -0.151; F -0.54; E -0.117; A -0.273; R -0.234; S -0.627; D 0.069; M -0.268; T -0.699
V53: Q -0.731; H -0.947; R -0.836; L -0.876; G -0.923; M -0.731; A -0.442
V3: M -0.017; I -0.689
Y40: W -0.713; N -0.284; L 0.041; R -0.498; E -0.419; Q -0.312; H 0.031; C -0.061; S -0.284; T -0.265
K10: E -0.104; D 0.052; S -0.008; R -0.033; W -0.319; G -0.373
